Experimental data published in ChEMBL document CHEMBL4043266, “Pentacyclic triterpenes as α-glucosidase and α-amylase inhibitors: Structure-activity relationships and the synergism with acarbose” (Bioorg Med Chem Lett, 2017).

Assays:
Conditions in all cases: Sus scrofa
[1] = compound: C[C@H]1[C@H](C)CC[C@]2(C(=O)O)CC[C@]3(C)C(=CC[C@@H]4[C@@]5(C)C[C@@H](O)[C@H](O)C(C)(C)[C@@H]5CC[C@]43C)[C@H]12; assay: Inhibition of porcine pancreatic alpha-amylase assessed as Vmax for substrate using starch as substrate at 15.6 uM by Michaelis-Menten plot analysis (reference value: 28.6 +/- 1.8 microg/ml/min)
[2] = compound: C[C@H]1[C@H](C)CC[C@]2(C(=O)O)CC[C@]3(C)C(=CC[C@@H]4[C@@]5(C)C[C@@H](O)[C@H](O)C(C)(C)[C@@H]5CC[C@]43C)[C@H]12; assay: Inhibition of porcine pancreatic alpha-amylase assessed as Km for substrate using starch as substrate at 15.6 uM by Michaelis-Menten plot analysis (reference value: 2.48 +/- 0.24 mg/ml)
[3] = compound: C[C@H]1[C@H](C)CC[C@]2(C(=O)O)CC[C@]3(C)C(=CC[C@@H]4[C@@]5(C)C[C@@H](O)[C@H](O)C(C)(C)[C@@H]5CC[C@]43C)[C@H]12; assay: Inhibition of porcine pancreatic alpha-amylase assessed as Vmax for substrate using starch as substrate at 31.2 uM by Michaelis-Menten plot analysis (reference value: 28.6 +/- 1.8 microg/ml/min)
[4] = compound: C[C@H]1[C@H](C)CC[C@]2(C(=O)O)CC[C@]3(C)C(=CC[C@@H]4[C@@]5(C)C[C@@H](O)[C@H](O)C(C)(C)[C@@H]5CC[C@]43C)[C@H]12; assay: Inhibition of porcine pancreatic alpha-amylase assessed as Km for substrate using starch as substrate at 31.2 uM by Michaelis-Menten plot analysis (reference value: 2.48 +/- 0.24 mg/ml)

B1: Pancreatic alpha-amylase (Sus scrofa), P00690 (protein)
chain: MKLFLLLSAFGFCWAQYAPQTQSGRTSIVHLFEWRWVDIALECERYLGPKGFGGVQVSPPNENIVVTNPSRPWWERYQPVSYKLCTRSGNENEFRDMVTRCNNVGVRIYVDAVINHMCGSGAAAGTGTTCGSYCNPGNREFPAVPYSAWDFNDGKCKTASGGIESYNDPYQVRDCQLVGLLDLALEKDYVRSMIADYLNKLIDIGVAGFRIDASKHMWPGDIKAVLDKLHNLNTNWFPAGSRPFIFQEVIDLGGEAIQSSEYFGNGRVTEFKYGAKLGTVVRKWSGEKMSYLKNWGEGWGFMPSDRALVFVDNHDNQRGHGAGGASILTFWDARLYKVAVGFMLAHPYGFTRVMSSYRWARNFVNGQDVNDWIGPPNNNGVIKEVTINADTTCGNDWVCEHRWRQIRNMVWFRNVVDGQPFANWWANGSNQVAFGRGNRGFIVFNNDDWQLSSTLQTGLPGGTYCDVISGDKVGNSCTGIKVYVSSDGTAQFSISNSAEDPFIAIHAESKL
[1]
  Vmax: 21 µg/mL/min
[2]
  Km: 2.28 mg/mL
[3]
  Vmax: 14.3 µg/mL/min
[4]
  Km: 2.69 mg/mL
